The text below walks through data of paper PMC8913300, “Two distinct classes of cochaperones compete for the EEVD motif in heat shock protein 70 to tune its chaperone activities” (The Journal of Biological Chemistry, 2022).

To fix the notation:
B1: Hsp72 C-terminal peptide truncated of P10 (9-mer) (peptide, UniProt P0DMV8 633-641, looked up)
peptide: Ac-SGPTIEEVD-OH
notes: source: synthetic peptide, bought: GenScript
B2: Hsp72 C-terminal peptide truncated of P10 and P9 (8-mer) (peptide, UniProt P0DMV8 634-641, looked up)
peptide: Ac-GPTIEEVD-OH
notes: as for B1
B3: Hsp72 tracer FITC-Ahx-GSGPTIEEVD (peptide)
peptide: GSGPTIEEVD-OH
modifications: not fully specified (N-terminus); printed as FITC-Ahx-GSGPTIEEVD; also: methods name the dye 5-FAM, not FITC
notes: last 10 residues of Hsp72/HSPA1A; also called fluorescent Hsp72 tracer; Hsp72 probe; source: synthetic peptide, bought: GenScript
B4: Hsp72 C-terminal 10-mer peptide, unlabeled, N-acetylated (peptide)
peptide: Ac-GSGPTIEEVD-OH
notes: last 10 residues of Hsp72/HSPA1A; also called WT Hsp72 peptide; source: synthetic peptide, bought: GenScript
B5: Hsp72 10-mer peptide with P5 Ile replaced by Met (peptide, UniProt P0DMV8 632-641, looked up)
peptide: Ac-GSGPTMEEVD-OH
notes: also called P5 Met mutant; source: synthetic peptide, bought: GenScript
B6: Hsp72 T636E tracer FITC-Ahx-GSGPEIEEVD (peptide)
peptide: GSGPEIEEVD-OH
modifications: not fully specified (N-terminus); printed as FITC-Ahx-GSGPEIEEVD; also: methods name the dye 5-FAM, not FITC
notes: also called phosphomimetic T636E Hsp72 fluorescent tracer; source: synthetic peptide, bought: GenScript
B7: Hsp72 C-terminal peptide truncated of P10 to P8 (7-mer PTIEEVD) (peptide)
peptide: Ac-PTIEEVD-OH
notes: last seven amino acids of Hsp72/HSPA1A; source: synthetic peptide, bought: GenScript
B8: C terminus of Hsc70 interacting protein (CHIP) (enzyme, human, UniProt Q9UNE7 1-303, looked up)
chain: MKGKEEKEGGARLGAGGGSPEKSPSAQELKEQGNRLFVGRKYPEAAACYGRAITRNPLVAVYYTNRALCYLKMQQHEQALADCRRALELDGQSVKAHFFLGQCQLEMESYDEAIANLQRAYSLAKEQRLNFGDDIPSALRIAKKKRWNSIEERRIHQESELHSYLSRLIAAERERELEECQRNHEGDEDDSHVRAQQACIEAKHDKYMADMDELFSQVDEKRKKRDIPDYLCGKISFELMREPCITPSGITYDRKDIEEHLQRVGHFDPVTRSPLTQEQLIPNLAMKEVIDAFISENGWVEDY
notes: recombinant human CHIP, E3 ubiquitin ligase with a TPR domain; source: E. coli BL21(DE3), purified (Ni-NTA, TEV cleavage, SEC); not shown: His6, N-terminal, cleaved

Values joined by “and” are separate entries in the source; they are usually repeats but may differ in a detail not shown here. Identical values can stand only once. No end group written: not given here.

Details in all cases: both partners purified
In assay [1] the target is T1, DnaJB4 (human, UniProt Q9UDY4 1-337).
T1 construct: DnaJB4, human, recombinant full length class B J-domain protein; the oligomeric state of DnaJB4 is not measured here; also called WT DnaJB4; class B JDP; source: E. coli BL21 (DE3) Rosetta, purified (Ni-NTA, TEV cleavage, SEC on Superdex 200); not shown: His6, N-terminal, cleaved
T1 sequence (Q9UDY4 whole entry): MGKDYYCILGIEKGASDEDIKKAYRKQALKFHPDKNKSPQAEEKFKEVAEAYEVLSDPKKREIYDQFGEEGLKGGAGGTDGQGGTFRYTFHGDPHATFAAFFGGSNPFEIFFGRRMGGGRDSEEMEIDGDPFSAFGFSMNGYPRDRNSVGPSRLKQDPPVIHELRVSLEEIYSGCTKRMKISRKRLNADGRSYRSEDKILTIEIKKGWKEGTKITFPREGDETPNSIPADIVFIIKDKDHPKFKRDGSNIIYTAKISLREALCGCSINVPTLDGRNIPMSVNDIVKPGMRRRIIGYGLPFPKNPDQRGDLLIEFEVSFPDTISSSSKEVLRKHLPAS
The assay is described as follows: fluorescence polarisation; competition; 100 μM unlabeled peptide, 5 μM DnaJB4, 20 nM Hsp72 tracer in JDP binding buffer; 30 min at room temperature; tracer displacement relative to DMSO control. For orientation: In fluorescence polarisation assays a small probe gives low polarisation when free and higher when bound to something large.

The target in assay [2] is T1, DnaJB4. The assay is described as follows: fluorescence polarisation; saturation binding; 20 nM fluorescent Hsp72 tracer, J-domain protein titrated in 2x dilutions (110-0.013 μM told for DnaJB4); 50 mM Tris, 15 mM NaCl, 1 mM DTT, 0.01% Triton X-100, pH 8.0; 30 min at room temperature.
For assay [3], the target named is B8. The assay is described as follows: fluorescence polarisation; competition; 100 μM unlabeled peptide, 1.58 μM CHIP, 20 nM Hsp72 tracer; 50 mM Hepes pH 7.4, 50 mM KCl, 0.01% Triton X-100; 30 min at room temperature.
Assay [4] concerns the target B6. The assay is described as follows: fluorescence polarisation; saturation binding; 20 nM fluorescent Hsp72 tracer, CHIP titrated in 2x dilutions (110-0.013 μM); 25 mM Hepes, 50 mM KCl, 0.01% Triton X-100, pH 7.4; 30 min at room temperature.

As for B1, the binding result with DnaJB4 [1] is given as “binds”.

Regarding B2, the binding result with DnaJB4 [1] is given as “binds”.

As for B3, in the assay with DnaJB4 [2], the dissociation constant (Kd) is 1840 nM and 1650 nM. The binding result in assay [3] is recorded as “binds”.

For B4, the binding result in assay [3] was “binds”.

Take B5: the binding result with DnaJB4 [1] is “binds”.

B6: in the assay with DnaJB4 [2], the binding result is “binds”.

For the molecule B7, the binding result with DnaJB4 [1] was “binds”.

In the case of B8, the “fold weakening of the affinity against the WT tracer” value in assay [4] was determined as 5 fold.

As usually defined, the Kd is the equilibrium constant for the complex coming apart. A higher Kd goes with lower affinity.
